Measurements as given in publication PMC5216073, “Architecture and mechanism of the late endosomal Rab7-like Ypt7 guanine nucleotide exchange factor complex Mon1–Ccz1” (Nature Communications, 2017).

T1: CtMon1, full length (Chaetomium thermophilum Mon1) (Chaetomium thermophilum, UniProt G0SGS3 1-665)
T1 construct: Mon1 of Chaetomium thermophilum, NCBI XP_006697030; C-terminal domain printed as aa 486-665; GST cleaved with PreScission protease; source: E. coli Rosetta (DE3), co-expressed with CtCcz1, purified (glutathione column, size exclusion chromatography); not shown: GST, N-terminal, cleaved
T1 sequence (looked up): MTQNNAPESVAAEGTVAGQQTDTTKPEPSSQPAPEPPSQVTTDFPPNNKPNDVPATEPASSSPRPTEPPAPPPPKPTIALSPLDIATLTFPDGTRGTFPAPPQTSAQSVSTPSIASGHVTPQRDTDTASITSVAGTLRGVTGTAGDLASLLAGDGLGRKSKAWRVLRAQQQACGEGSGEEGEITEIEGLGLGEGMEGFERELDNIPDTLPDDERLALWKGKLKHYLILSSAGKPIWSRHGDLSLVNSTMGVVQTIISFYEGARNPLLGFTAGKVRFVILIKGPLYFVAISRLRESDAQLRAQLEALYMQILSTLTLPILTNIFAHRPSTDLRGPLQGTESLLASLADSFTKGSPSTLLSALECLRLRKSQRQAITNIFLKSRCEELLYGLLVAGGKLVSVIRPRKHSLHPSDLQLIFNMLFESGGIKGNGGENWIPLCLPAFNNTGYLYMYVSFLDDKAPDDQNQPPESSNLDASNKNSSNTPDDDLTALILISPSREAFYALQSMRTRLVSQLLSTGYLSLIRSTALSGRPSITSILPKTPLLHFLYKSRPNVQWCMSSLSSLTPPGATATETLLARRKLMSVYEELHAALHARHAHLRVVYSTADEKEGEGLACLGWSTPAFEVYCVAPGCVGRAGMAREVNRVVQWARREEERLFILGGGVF

B1: full-length CtMC1 complex (CtMon1-CtCcz1) (complex, Chaetomium thermophilum)
chain 1: T1 sequence (looked up)
chain 2: MTTPVSPSPSGIIPAQLGFLAIYNPALGTTDETLEDQIVYYATASTLSQARRRHRRPRRRDRQRAQSVVKDSRPNAAGATGDSEAVAEDKDPVSKEERHERLRQIGLAQGMVEFAKSFSDGEPVDTIDTEKARVILVEVEEGWWILASIDLTRLPLPQIKTPTSSSAPPPAPNLNPLPPEPAYEYSSREVKPPSLLRADLLRAYDLFLLHHGSSLSSLLASQGRAQLVASLTRFWDHFLATWNVLLHGNPACDVFGGIKLAASGELGIGVGEEERGSGEREVLEGLVERVEGLVDVVVGRYGGPPSEKGPEEEQWLGLGGEVGEEDGAVFLGVGALDRKSLRGVVQWMEEVYVWGENAFGVGGSRAARRRRKRGAKESRVLKTGAGKKIPIGTGTGTEGKRGEAATPDMAGTPGSMDKLFSYLTLGYGTSWSLGLSGTSTPSDSDPGSVSKGMVESSESGKPRRDLSTGHFLLGLSECSEEELTSSQANPKAIFVELKPSYQHPSRKIPPEDPQPLGKVGPELPRDHTARLRPVIYVSQPFIYILLFSEITPSPSTWPTLAESLHAQLSPLQKPLLHSTSYRPERPVVETTSSSGTTTQHQIFDLVYDTETLTLQSTIPNIPDPFPYSATTPTGHSTGQQHHQQSIWTRVEALQTHAQILAILSSGRAIPTDPSSFTHLPWEEGERTCKTARGWWIVWTRVVEHSPPDAVSLHHARDDDDNDDDASCSVLGHLRSVSSSHAAGSTSSSSGSGFGLGAIPGLGGLGGWAADGATRLAQGIGIDTRRYVEGLLTSLGR
notes: Mon1 of Chaetomium thermophilum, NCBI XP_006697030; codon-optimized synthetic gene; Ccz1 of Chaetomium thermophilum, NCBI XP_006695440; The Mon1-Ccz1 heterodimer forms a dimer of heterodimers (two copies of each protein); the rows of m3 with itself mean the association of two heterodimers; also called CtMC1full; Mon1-Ccz1 complex; source: E. coli Rosetta (DE3), co-expressed, purified (glutathione …)
B2: CtCcz1, full length (Chaetomium thermophilum Ccz1) (natural protein, UniProt G0SD94 1-796, looked up)
chain: B1 chain 2
notes: Ccz1 of Chaetomium thermophilum, NCBI XP_006695440; C-terminus printed as residues 250-796; His6-SUMO cleaved with SUMO protease; source: E. coli Rosetta (DE3), co-expressed with CtMon1, purified (glutathione column, size exclusion chromatography); not shown: His6, N-terminal, cleaved; SUMO, N-terminal, cleaved

Legend:
[1] = molecular target: CtYpt7 wild type (Chaetomium thermophilum Ypt7) (Chaetomium thermophilum); test: cell-based or functional assay
[2] = molecular target: the molecule itself; test: SEC; gel filtration of the full-length CtMC1 complex, co-expressed in E. coli and purified on a glutathione column by GST-CtMon1, tags cleaved
[3] = molecular target: T1, CtMon1, full length (Chaetomium …); test: as above; details: both partners purified

Binder | kcat/KM of MC1-stimulated exchange of MANT-GDP for GTP on Ypt7 (fluorescence GEF assay, 0-2.0 μM CtMC1, 25 °C) [1] | stoichiometry N [2] | stoichiometry N [3]
B1 | 21000 M⁻¹ s⁻¹ | 2 | 
B2 |  |  | 1
